# B1: CPEB3 Ribozyme (parent)
# chain: GGGGGCCACAGCAGAAGCGUUCACGUCGCGGCCCCUGUCAGAUUCUGGUGAAUCUGCGAAUUCUGCUGU
# Variants of: B1
# Assay: self-cleavage, relative activity (ratio to wild type); higher = more cleavage; co-transcriptional
row,Variant,self-cleavage
1,G31C G48A,0.24
2,G31C G48C,0.222
3,G31C G48U,0.247
4,G31C G50C,0.245
5,G31C G50U,0.238
6,G31C G56A,0.2
7,G31C G56C,0.139
8,G31C G56U,0.164
9,G31C G58A,0.21
10,G31C G65A,0.147
11,G31C G65U,0.136
12,G31C G68C,0.414
13,G31C G68U,0.392
14,G31C U36A,0.155
15,G31C U36C,0.203
16,G31C U36G,0.475
17,G31C U38C,0.191
18,G31C U38G,0.191
19,G31C U43C,0.289
20,G31C U43G,0.276
21,G31C U44A,0.257

row,Variant,self-cleavage
1,G31C U44G,0.242
2,G31C U46A,0.263
3,G31C U46C,0.164
4,G31C U46G,0.205
5,G31C U49A,0.286
6,G31C U49C,0.178
7,G31C U49G,0.175
8,G31C U53A,0.208
9,G31C U55A,0.188
10,G31C U55C,0.225
11,G31C U61A,0.179
12,G31C U61C,0.188
13,G31C U61G,0.158
14,G31C U62G,0.228
15,G31C U64A,0.111
16,G31C U64C,0.273
17,G31C U67A,0.277
18,G31C U67G,0.355
19,G31C U69G,0.444
20,G31U,0.782
21,G31U A40C,0.254

row,Variant,self-cleavage
1,G31U A40G,0.457
2,G31U A42C,0.458
3,G31U A42G,0.692
4,G31U A51G,0.636
5,G31U A52G,0.775
6,G31U A52U,0.655
7,G31U A59U,0.334
8,G31U A60G,0.277
9,G31U A60U,0.229
10,G31U C32G,0.177
11,G31U C32U,0.32
12,G31U C33G,0.2
13,G31U C33U,0.4
14,G31U C34A,0.232
15,G31U C34G,0.237
16,G31U C35G,0.252
17,G31U C39A,0.319
18,G31U C39G,0.437
19,G31U C39U,0.357
20,G31U C45A,0.662
21,G31U C45G,0.559

row,Variant,self-cleavage
1,G31U C54G,0.33
2,G31U C54U,0.729
3,G31U C57A,0.208
4,G31U C57U,0.229
5,G31U C63U,0.602
6,G31U C66A,0.489
7,G31U C66G,0.415
8,G31U C66U,0.732
9,G31U G37C,0.189
10,G31U G37U,0.163
11,G31U G41U,0.398
12,G31U G47A,0.787
13,G31U G47C,0.684
14,G31U G47U,0.795
15,G31U G48A,0.756
16,G31U G48C,0.812
17,G31U G48U,0.797
18,G31U G50C,0.742
19,G31U G50U,0.754
20,G31U G56A,0.386
